Target: wild type CAR (WT CAR): human FcεRIα extracellular domain fused to CD3ζ (human)
Sequence (chain, as listed by the source): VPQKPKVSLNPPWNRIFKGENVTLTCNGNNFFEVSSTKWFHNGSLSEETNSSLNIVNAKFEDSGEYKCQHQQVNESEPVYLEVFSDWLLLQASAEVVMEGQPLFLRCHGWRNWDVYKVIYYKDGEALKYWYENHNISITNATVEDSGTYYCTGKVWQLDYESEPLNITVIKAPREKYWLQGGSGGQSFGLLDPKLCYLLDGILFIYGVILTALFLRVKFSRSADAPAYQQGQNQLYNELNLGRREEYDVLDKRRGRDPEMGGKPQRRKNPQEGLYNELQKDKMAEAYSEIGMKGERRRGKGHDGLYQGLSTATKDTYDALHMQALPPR
Assay: cell-based or functional assay

purified human IgE (Abcam), sequence (P01854 other isoform, or with tags, fused parts or gaps): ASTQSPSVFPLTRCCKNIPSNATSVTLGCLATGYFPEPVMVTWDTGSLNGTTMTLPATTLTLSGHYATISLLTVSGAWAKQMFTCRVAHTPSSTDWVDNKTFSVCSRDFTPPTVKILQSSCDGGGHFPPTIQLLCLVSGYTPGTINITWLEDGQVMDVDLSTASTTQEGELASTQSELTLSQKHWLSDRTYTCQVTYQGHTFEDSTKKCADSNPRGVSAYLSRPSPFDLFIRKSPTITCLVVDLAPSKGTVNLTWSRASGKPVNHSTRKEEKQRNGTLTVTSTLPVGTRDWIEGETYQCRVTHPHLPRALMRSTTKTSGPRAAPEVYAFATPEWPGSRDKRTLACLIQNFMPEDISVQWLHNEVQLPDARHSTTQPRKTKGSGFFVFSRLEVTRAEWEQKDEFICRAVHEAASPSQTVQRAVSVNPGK

suppression of CD69 up-regulation by U266 cells, free IgE at 1.7 µg/ml: > 2 fold
suppression of CD69 up-regulation by U266 cells, free IgE at 10 µg/ml: > 4 fold
Substance: purified human IgE (Abcam) (from UniProt P01854 1-428) (antibody)
